Consider 2 molecules from patent US20140024555A1 (LOS ALAMOS NATIONAL SECURITY, published 2014).

Test [1] has as its target T1, YBGK of Escherichia coli with C-terminal GFP S11 tag (Escherichia coli, UniProt P75745 1-310).
T1 construct: Labelled by complementation with co-expressed GFP 1-10 detector; also called last subunit of YBGJ/YBGK (predicted allophanate hydrolase); not shown: flexible linker and C-terminal GFP S11 tag of the pTET S11 vector
T1 sequence: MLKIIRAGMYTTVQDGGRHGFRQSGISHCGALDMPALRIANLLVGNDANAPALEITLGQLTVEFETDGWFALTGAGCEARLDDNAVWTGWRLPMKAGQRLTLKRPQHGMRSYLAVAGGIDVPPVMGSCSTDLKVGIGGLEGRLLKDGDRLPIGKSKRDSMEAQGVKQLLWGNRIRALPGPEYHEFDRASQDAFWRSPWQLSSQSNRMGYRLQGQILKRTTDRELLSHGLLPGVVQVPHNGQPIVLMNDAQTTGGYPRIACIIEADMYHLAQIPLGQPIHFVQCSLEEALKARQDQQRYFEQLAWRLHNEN
The test can be described thus: colony filtration immobilized bead assay, capture plates with TNG buffer (FIG. 4B); complex 6.

In test [2] the target is T2, YheM subunit of the E. coli YheML construct, with N-terminal 6-His tag (Escherichia coli, UniProt P45531 1-119).
T2 construct: Negative control construct in which YheN is omitted; the first subunit of each construct carries the 6-His tag; also called TusC; first subunit of Yhe ML; not shown: N-terminal 6-His tag from the N-6His pTET S11 vector
T2 sequence: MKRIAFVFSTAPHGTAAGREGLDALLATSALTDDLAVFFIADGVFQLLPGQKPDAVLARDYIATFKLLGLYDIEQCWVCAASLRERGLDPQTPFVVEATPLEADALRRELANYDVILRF
The test can be described thus: colony filtration immobilized bead assay: 6-His subunit captured on Talon resin in agarose, GFP S11 subunit read by complemented GFP fluorescence; YheML construct with YheN omitted.

B1: YBGJ of Escherichia coli with N-terminal 6-His tag (other)
chain: MQRARCYLIGETAVVLELEPPVTLASQKRIWRLAQRLVDMPNVVEAIPGMNNITVILRNPESLALDAIERLQRWWEESEALEPESRFIEIPVVYGGAGGPDLAVVAAHCGLSEKQVVELHSSVEYVVWFLGFQPGFPYLGSLPEQLHTPRRAEPRLLVPAGSVGIGGPQTGVYPLATPGGWQLIGHTSLSLFDPARDEPILLRPGDSVRFVPQKEGVC
notes: also called predicted allophanate hydrolase; not shown: N-terminal 6-His tag from the N-6His pTET S11 vector
As to B1, the binding result in test [1] is recorded as “binds”.

B2: YheL subunit of the E. coli YheNML / YheML constructs, with C-terminal GFP S11 tag (other)
chain: MLHTLHRSPWLTDFAALLRLLSEGDELLLLQDGVTAAVDGNRYLESLRNAPIKVYALNEDLIARGLTGQISNDIILIDYTDFVRLTVKHPSQMAW
notes: Fluorescently labelled in the cell by complementation with co-expressed GFP 1-10 detector; also called TusB; last subunit of Yhe NML and Yhe ML; not shown: flexible linker and C-terminal GFP S11 tag (beta-strand 11, residues 215-230) of the pTET S11 vector; the S11 variant an
With B2, the binding result in test [2] is given as “no binding”.
